Experimental data reported in patent US20260184782A1 (TWIST BIOSCIENCE, published 2026).

T1: TIGIT (UniProt Q495A1 22-141, limits assumed)
T1 construct: construct not described; also called T cell immunoreceptor with Ig and ITIM domains
T1 sequence (looked up): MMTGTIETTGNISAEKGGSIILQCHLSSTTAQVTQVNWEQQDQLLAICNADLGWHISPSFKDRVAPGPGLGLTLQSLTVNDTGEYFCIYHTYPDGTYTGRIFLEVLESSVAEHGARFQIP


Assays:
TIGIT [1] = biological target: T1, TIGIT; assay: SPR, VHH-V5-His
TIGIT [2] = biological target: T1, TIGIT; assay: SPR, VHH-V5-His; unit inferred

RU (TIGIT [1]) [RU]	Kd (TIGIT [2]) [µM]	Binder
157	0.352	TIGIT-29-18 VHH-V5-His (VHH, not shown: V5 and His tags) VHH: EVQLVESGGGLVQAGGSLRLSCAASGSTFSNYAMGWFRQAPGKEREFVSAINSSGSRTYYADSVKGRFTISADNAKNTVYLQMNSLKPEDTAVYYCAARLWGTWTAGDYDYWGQGTQVTVSS
123	0.5	TIGIT-29-22 VHH-V5-His (VHH, not shown: V5 and His tags) VHH: EVQLVESGGGLVQAGGSLRLSCAASGSILSSYTMGWFRQAPGKEREFVSTISRSSTRTYYADSVKGRFTISADNAKNTVYLQMNSLKPEDTAVYYCAARLWGTWTAGDYDYWGQGTQVTVSS
167	0.967	TIGIT-29-34 VHH-V5-His (VHH, not shown: V5 and His tags) VHH: EVQLVESGGGLVQAGGSLRLSCAASGFTFRNYAMGWFRQAPGKEREFVSSISSSSSRTSYADSVKGRFTISADNAKNTVYLQMNSLKPEDTAVYYCAARLWGTWTAGDYDYWGQGTQVTVSS
407	0.107	TIGIT-30-43 VHH-V5-His (VHH, not shown: V5 and His tags) VHH: EVQLVESGGGLVQAGGSLRLSCAASGFTFSTSWMGWFRQAPGKERELVAARNSGGNTNYADSVKGRFTISADNAKNTVYLQMNSLKPEDTAVYYCAADVWYGSTWRNWGQGTQVTVSS
664	7.46	TIGIT-30-01 VHH-V5-His (VHH, not shown: V5 and His tags) VHH: EVQLVESGGGLVQAGGSLRLSCAASGFAFSSYWMGWFRQAPGKERELVAARNSGGNTNYADSVKGRFTISADNAKNTVYLQMNSLKPEDTAVYYCAADVWYGSTWRNWGQGTQVTVSS
113	0.222	TIGIT-30-40 VHH-V5-His (VHH, not shown: V5 and His tags) VHH: EVQLVESGGGLVQAGGSLRLSCAASGFTFSGNWMGWFRQAPGKEREWVVGISSGGSTHYADSVKGRFTISADNAKNTVYLQMNSLKPEDTAVYYCAADVWYGSTWRNWGQGTQVTVSS
66	0.215	TIGIT-30-15 VHH-V5-His (VHH, not shown: V5 and His tags) VHH: EVQLVESGGGLVQAGGSLRLSCAASGFTFSGNWMGWFRQAPGKEREWVSGISSGGGRTYYADSVKGRFTISADNAKNTVYLQMNSLKPEDTAVYYCAADVWYGSTWRNWGQGTQVTVSS
69	0.195	TIGIT-30-20 VHH-V5-His (VHH, not shown: V5 and His tags) VHH: EVQLVESGGGLVQAGGSLRLSCAASGPTFSIYDMGWFRQAPGKEREFVAVINWSRGSTFYADSVKGRFTISADNAKNTVYLQMNSLKPEDTAVYYCAAGVWSSLRHTAANWGQGTQVTVSS
99	0.945	TIGIT-30-49 VHH-V5-His (VHH, not shown: V5 and His tags) VHH: EVQLVESGGGLVQAGGSLRLSCAASGNIFSRYIMGWFRQAPGKEREWVAGISNGGTTKYADSVKGRFTISADNAKNTVYLQMNSLKPEDTAVYYCAQGWKIVPTNWGQGTQVTVSS
36	0.323	TIGIT-29-10 VHH-V5-His (VHH, not shown: V5 and His tags) VHH: EVQLVESGGGLVQAGGSLRLSCAASGRTFSNYGMGWFRQAPGKEREFVSGISGSGGRTSYADSVKGRFTISADNAKNTVYLQMNSLKPEDTAVYYCAANLWYPVDRLNTGFNYWGQGTQVTVSS
